Results: US7799901B2, “Modulators of the function of FAS receptors and other proteins” (Yeda Research and Development Co. Ltd., priority 1995, dated 2010)

B1: MACHβ1: MACH isoform, cDNA SEQ ID NO: 4, amino acid SEQ ID NO: 5; lacks the CED3/ICE homology region (protein)
chain: MDFSRNLYDIGEQLDSEDLASLKFLSLDYIPQRKQEPIKDALMLFQRLQEKRMLEESNLSFLKELLFRINRLDLLITYLNTRKEEMERELQTPGRAQISAYRVMLYQISEEVSRSELRSFKFLLQEEISKCKLDDDMNLLDIFIEMEKRVILGEGKLDILKRVCAQINKSLLKIINDYEEFSKERSSSLEGSPDEFSNDFGQSLPNEKQTSGILSDHQQSQFCKSTGESAQTSQH
B2: MORT-1: Mediator of Receptor-induced Toxicity; protein binding the intracellular domain of FAS-R, SEQ ID NO:2 (protein)
chain: VNQAPECRFGGGILGPLGKRRDLARASEPRTEGARRAGPQPRPLADPAMDPFLVLLHSVSSSLSSSELTELKFLCLGRVVKRKLERVQSGLDLFSMLLEQNDLEPGHTELLRELLASLRRHDLLRRVDDFEAGAAAGAAPGEEDLCAAFNVICDNVGKDWRRLARQLKVSDTKIDSIEDRYPRNLTERVRESLRIWKNTEKENATVAHLVGALRSCQMNLVADLVQEVQQARDLQNRSGAMSPMSWNSDASTSEAS

Key:
MORT1DD (130-245) = target: T1, MORT1DD (130-245) (Homo sapiens, UniProt Q13158); assay: Two-hybrid β-galactosidase expression filter assay in SFY526 yeast, DNA-binding domain hybrid MORT1DD (130-245)
T1 construct: 130-245 MORT-1; expressed in transfected cells
T1 sequence (Q13158 82-197): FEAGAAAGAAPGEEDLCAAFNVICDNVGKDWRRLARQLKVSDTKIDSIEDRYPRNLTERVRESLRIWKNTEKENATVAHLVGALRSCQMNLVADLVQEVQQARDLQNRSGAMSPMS
Text: (§1) To isolate proteins interacting with the intracellular domain of the FAS-R, the yeast two-hybrid system was used (Fields and Song, 1989). […] In this system, the genes for the candidate interacting proteins are cloned into separate expression vectors. In one expression vector, the sequence of the one candidate protein is cloned in phase with the sequence of the GAL4 DNA-binding domain to generate a hybrid protein with the GAL4 DNA-binding-domain, and in the other vector, the sequence of the second candidate protein is cloned in phase with the sequence of the GAL4 activation domain to generate a hybrid protein with the GAL4-activation domain. The two hybrid vectors are then co-transformed into a yeast host strain having a lacZ or HIS3 reporter gene under the control of upstream GAL4 binding sites. […]
The yeast two-hybrid test was further applied to evaluate the specificity of binding of MACH to MORT-1, in particular, to define the region in MORT-1 to which MACH binds, as well as to determine which of the MACH ORFs interacts with MORT-1, the procedures being as set forth herein above in Examples 1 and 2. Briefly, various MORT-1 and MACH constructs were prepared for testing the interaction of the proteins encoded by the Gal4 DNA-binding domain and activation domain constructs within transfected SFY526 yeast cells as assessed by the β-galactosidase expression filter assay. […]

CD40 = target: T2, CD40 (Homo sapiens, UniProt P25942); assay: Two-hybrid test of MORT-1 binding (FIG. 1), CD40; details: CD40-IC residues 216-277, FIG. 1
T2 construct: human CD40 (CD40-IC, residues 216-277); expressed in transfected cells; host or cells: SFY526 yeast
T2 sequence (P25942 216-277): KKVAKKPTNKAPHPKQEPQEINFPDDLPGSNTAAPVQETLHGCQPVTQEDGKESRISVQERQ
Text: as §1, with “sites. Only those transformed host cells (cotransformants) in which the two hybrid proteins are expressed and are capable of interacting with each other, will be capable of expressing the reporter gene. In the case of the lacZ reporter gene, host cells expressing this gene will become blue in color when X-gal is added to the cultures.” for “sites.”
(§2) In FIG. 1, there is depicted the interaction of the proteins encoded by the Gal4 DNA binding domain and activation-domain constructs (pGBT9 and pGAD-GH) within transfected SFY526 yeasts as assessed by β-galactosidase expression filter assay. […]

p55 TNF receptor = target: T3, p55 TNF receptor (Homo sapiens, UniProt P19438); assay: Two-hybrid test of MORT-1 binding (FIG. 1), p55 TNF receptor; details: p55-IC residues 206-426, FIG. 1
T3 construct: human p55 TNF receptor (p55-IC residues 206-426); expressed in transfected cells; host or cells: SFY526 yeast
T3 sequence (P19438 235-455): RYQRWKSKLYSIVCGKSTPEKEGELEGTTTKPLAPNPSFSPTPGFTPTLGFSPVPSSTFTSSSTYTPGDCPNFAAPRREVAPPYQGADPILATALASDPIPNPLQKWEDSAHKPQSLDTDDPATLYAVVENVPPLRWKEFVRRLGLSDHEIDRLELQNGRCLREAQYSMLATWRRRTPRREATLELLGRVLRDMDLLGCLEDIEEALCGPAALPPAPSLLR
Text: as §1, with “sites. Only those transformed host cells (cotransformants) in which the two hybrid proteins are expressed and are capable of interacting with each other, will be capable of expressing the reporter gene. In the case of the lacZ reporter gene, host cells expressing this gene will become blue in color when X-gal is added to the cultures.” for “sites.”
as §2

Row | Molecule | development of color (interaction with DNA-binding domain hybrid) (MORT1DD (130-245)) | binding to CD40 in two-hybrid test (CD40) | binding to p55 TNF receptor in two-hybrid test (p55 TNF receptor)
1 | B1 | −−− (“−−−” indicates the lack of development of color within 24 hrs. of the assay) |  | 
2 | B2 |  | not | not
